# In patent US20250312464A1 (CILOA, published 2025):
# B1: SBP-eGFP polypeptide (other)
# chain: not shown
# Molecular target: T1, Src-streptavidin-PP polypeptide
# T1 construct: also called Src-strepta-PP; Src-Strepta-PP
# Assay: co-expression in HEK293T cells; EV loading, Western blot
binder,measurement,value
B1,binding result,binds
